Where two headings read alike, the source gives them in different places.
What was measured:
[1] = molecular target: T1, Full-length human HER3 extracellular domain (ECD) (human, UniProt P21860 20-643); assay: BIACORE 2000 SPR, mAb captured, HER3 protein as analyte, 25 C
T1 construct: also called human HER3 ECD; HER-3 ECD full length

[2] = molecular target: T2, Human HER3 ECD domain 1-2 protein (human, UniProt P21860 20-329); assay: as above
T2 construct: also called D1-2; sub-domains 1-2

Human HER3 ECD domain II [3] = molecular target: T3, Human HER3 ECD domain II (human, UniProt P21860 184-329); assay: as above
T3 construct: also called D2; Domain 2
T3 sequence (P21860 184-329): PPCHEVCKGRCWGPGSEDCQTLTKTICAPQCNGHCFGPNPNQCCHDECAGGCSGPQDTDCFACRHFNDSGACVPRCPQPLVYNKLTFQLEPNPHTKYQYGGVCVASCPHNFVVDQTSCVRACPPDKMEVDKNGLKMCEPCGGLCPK

[4] = molecular target: T4, Human HER3 ECD domain 2-3 protein (human, UniProt P21860 184-495); assay: as above
T4 construct: also called D2-3; sub-domains 2-3
T4 sequence (P21860 184-495): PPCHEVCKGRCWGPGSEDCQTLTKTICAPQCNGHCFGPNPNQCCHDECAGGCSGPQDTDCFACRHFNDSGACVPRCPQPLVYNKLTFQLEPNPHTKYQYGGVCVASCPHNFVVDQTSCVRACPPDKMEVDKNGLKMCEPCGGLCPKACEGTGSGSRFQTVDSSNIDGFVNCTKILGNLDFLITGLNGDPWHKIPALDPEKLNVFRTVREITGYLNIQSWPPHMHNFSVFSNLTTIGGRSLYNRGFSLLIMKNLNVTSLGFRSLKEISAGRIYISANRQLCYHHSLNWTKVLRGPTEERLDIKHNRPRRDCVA

Human HER3 ECD domain I = molecular target: T5, Human HER3 ECD domain I (human, UniProt P21860 20-183); assay: DELFIA, plate coated with HER3 Domain I 1ug/ml
T5 construct: also called D1; sub-domain 1
T5 sequence (P21860 20-183): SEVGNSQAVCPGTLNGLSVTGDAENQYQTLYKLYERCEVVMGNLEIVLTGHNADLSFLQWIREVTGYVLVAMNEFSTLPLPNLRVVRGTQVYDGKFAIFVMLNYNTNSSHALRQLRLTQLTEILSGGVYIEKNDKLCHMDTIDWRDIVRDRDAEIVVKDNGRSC
Protocol: (§1) Dissociation Enhanced Lanthanide Fluorescence Immunoassay (DELFIA) for detection of the anti-HER3 antibodies to HER3 extracellular domain (ECD) was used. The DELFIA procedures were as follows: white Maxisorp 96-well plates (Nunc #437796) were coated with 100 ul/well of 1 ug/ml HER-3 ECD full length or HER3Domain I, II, III and IV in 0.1M carbonate buffer pH 9.5 overnight at 4° C. These plates were blocked with casein in TBS (Thermo Scientific #37532 lot#JD121074). The neat hybridoma supernatant, or the purified anti-HER3 antibodies diluted in Perkin Elmer #4002-0010 Assay Buffer from 10 ug/ml (or 100 ug/ml) to 0.01 ug/ml, or the PK serum samples with a minimum of 3 dilutions (100 ul/well) were added to the plate. These samples were incubated for 2 hours at room temperature while on a plate shaker or overnight at 4° C. […] The plate was washed 4 times with tris-buffer plus 0.05% tween-20 (Perkin Elmer #4010-0010) on a BIOTEK™ plate washer following each antibody incubation step. 100 ul/well of DELFIA enhancement solution (Perkin Elmer 1244-105) was added for 5 minutes at room temperature. […] Antibody binding was recorded as europium counts per well.

[5] = molecular target: T6, Human HER3 ECD domain III (human, UniProt P21860 330-495); assay: DELFIA, plate coated with HER3 Domain III 1ug/ml
T6 construct: also called D3; Domain 3
T6 sequence (P21860 330-495): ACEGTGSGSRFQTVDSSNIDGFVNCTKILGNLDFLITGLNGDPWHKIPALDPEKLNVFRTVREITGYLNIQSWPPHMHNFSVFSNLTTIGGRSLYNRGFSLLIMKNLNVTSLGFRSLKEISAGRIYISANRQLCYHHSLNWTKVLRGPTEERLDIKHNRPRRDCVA
Protocol: as §1

Human HER3 ECD domain IV = molecular target: T7, Human HER3 ECD domain IV (human, UniProt P21860 496-643); assay: DELFIA, plate coated with HER3 Domain IV 1ug/ml
T7 construct: also called D4; sub-domain 4
T7 sequence (P21860 496-643): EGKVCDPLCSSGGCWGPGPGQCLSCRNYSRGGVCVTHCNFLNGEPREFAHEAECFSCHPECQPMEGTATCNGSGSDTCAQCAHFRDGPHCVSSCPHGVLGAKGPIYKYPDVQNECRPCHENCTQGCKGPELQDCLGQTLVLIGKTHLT
Protocol: as §1

Human HER3 ECD domain II [6] = molecular target: T3, Human HER3 ECD domain II; assay: DELFIA (europium time-resolved fluorescence), plate coated with HER3 Domain II 1ug/ml, antibody titrated 0.001-10 ug/ml
Human HER3 receptor [7] = molecular target: T8, Human HER3 receptor (human, UniProt P21860 20-1342); assay: cell-based or functional assay
T8 sequence (P21860 20-1342 limits assumed): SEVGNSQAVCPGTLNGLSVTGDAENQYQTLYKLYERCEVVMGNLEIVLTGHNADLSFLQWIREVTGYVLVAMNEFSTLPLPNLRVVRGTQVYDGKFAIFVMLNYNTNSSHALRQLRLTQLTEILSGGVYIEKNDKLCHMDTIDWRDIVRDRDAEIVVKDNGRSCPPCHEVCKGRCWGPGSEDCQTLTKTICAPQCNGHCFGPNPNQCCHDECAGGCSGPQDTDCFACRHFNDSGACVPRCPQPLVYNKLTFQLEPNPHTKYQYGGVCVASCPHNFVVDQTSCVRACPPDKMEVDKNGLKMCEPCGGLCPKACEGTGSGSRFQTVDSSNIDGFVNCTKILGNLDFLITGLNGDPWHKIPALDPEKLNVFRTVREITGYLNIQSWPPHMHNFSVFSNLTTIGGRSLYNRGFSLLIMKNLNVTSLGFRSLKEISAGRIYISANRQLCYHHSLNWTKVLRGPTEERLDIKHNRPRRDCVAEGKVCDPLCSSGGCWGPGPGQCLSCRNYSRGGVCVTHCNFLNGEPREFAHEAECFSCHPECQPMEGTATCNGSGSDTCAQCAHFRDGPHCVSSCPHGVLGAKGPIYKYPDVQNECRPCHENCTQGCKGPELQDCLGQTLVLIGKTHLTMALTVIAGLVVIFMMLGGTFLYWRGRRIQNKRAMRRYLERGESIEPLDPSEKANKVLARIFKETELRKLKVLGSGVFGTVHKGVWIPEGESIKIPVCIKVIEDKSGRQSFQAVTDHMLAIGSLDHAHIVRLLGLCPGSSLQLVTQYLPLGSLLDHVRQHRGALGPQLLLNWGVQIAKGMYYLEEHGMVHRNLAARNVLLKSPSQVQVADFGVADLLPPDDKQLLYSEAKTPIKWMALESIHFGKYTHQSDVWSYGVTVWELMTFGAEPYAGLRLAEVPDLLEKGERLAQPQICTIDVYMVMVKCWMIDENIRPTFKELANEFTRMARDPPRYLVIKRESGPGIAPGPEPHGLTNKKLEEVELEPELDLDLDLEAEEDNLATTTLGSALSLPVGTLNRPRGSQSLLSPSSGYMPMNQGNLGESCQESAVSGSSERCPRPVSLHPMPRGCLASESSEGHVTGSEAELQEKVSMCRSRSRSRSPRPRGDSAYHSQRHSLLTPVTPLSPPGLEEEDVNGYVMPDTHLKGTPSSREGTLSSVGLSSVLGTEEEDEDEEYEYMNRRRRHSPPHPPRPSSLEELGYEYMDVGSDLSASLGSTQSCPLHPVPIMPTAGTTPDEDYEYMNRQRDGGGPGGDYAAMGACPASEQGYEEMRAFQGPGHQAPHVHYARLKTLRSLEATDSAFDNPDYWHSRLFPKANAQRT

[8] = molecular target: T1, Full-length human HER3 extracellular …; assay: affinity summary table, method not given
Human HER3 ECD domain II [9] = molecular target: T3, Human HER3 ECD domain II; assay: affinity summary table, method not given
Human HER3 receptor [10] = molecular target: T8, Human HER3 receptor; assay: cell-based or functional assay; remark: listed apart in the source
Human HER3 receptor [11] = molecular target: T8, Human HER3 receptor; assay: cell-based or functional assay; remark: listed apart in the source
[12] = molecular target: T9, Murine HER3 on B16 and B16F10 melanoma cells (murine, UniProt Q61526 20-1339); assay: flow cytometry on B16F10 murine melanoma cells, antibody labelled with a Zenon APC kit [c]
T9 construct: whole, on cells
T9 sequence (Q61526 20-1339, one chain of several): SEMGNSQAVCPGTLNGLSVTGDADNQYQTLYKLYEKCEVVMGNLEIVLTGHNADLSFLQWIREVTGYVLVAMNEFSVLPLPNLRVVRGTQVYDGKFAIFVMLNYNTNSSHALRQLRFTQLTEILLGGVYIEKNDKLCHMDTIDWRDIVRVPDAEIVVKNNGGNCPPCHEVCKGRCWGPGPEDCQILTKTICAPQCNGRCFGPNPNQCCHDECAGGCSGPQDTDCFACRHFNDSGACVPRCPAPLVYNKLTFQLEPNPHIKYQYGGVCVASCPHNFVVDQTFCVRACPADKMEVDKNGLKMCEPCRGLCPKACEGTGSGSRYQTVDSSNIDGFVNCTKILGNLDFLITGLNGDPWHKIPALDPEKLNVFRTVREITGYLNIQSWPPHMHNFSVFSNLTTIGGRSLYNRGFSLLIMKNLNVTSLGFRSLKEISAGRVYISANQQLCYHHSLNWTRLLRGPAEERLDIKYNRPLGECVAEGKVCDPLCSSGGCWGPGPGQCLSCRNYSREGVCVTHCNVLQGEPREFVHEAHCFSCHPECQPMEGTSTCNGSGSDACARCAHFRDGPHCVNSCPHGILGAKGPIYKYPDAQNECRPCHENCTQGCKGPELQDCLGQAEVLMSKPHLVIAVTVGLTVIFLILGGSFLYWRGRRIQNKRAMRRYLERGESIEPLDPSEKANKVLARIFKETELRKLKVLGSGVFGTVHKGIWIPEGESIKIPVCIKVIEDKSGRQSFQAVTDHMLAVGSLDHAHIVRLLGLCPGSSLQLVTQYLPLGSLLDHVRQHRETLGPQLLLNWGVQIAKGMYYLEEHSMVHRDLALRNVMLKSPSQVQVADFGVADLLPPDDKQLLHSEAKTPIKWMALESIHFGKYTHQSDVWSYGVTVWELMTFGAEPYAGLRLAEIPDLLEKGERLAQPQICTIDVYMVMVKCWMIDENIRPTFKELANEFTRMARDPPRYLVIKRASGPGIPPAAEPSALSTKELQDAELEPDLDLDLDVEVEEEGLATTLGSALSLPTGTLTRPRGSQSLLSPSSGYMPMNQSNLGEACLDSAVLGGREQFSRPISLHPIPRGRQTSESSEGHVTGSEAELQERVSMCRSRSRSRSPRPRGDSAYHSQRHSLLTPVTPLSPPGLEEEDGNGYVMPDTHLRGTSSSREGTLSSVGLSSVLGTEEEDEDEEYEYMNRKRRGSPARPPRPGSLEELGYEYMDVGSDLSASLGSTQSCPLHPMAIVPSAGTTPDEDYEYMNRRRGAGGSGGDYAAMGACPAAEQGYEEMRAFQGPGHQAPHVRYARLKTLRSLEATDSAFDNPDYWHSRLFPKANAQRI
Text: B16F10 ZENON™ labeling kits: [0530] Mouse IgG1 PE—Invitrogen Z25021 [0531] Mouse IgG1 APC—Invitrogen Z25051 [0532] Mouse IgG2b APC—Invitrogen Z25151 Method: Commercially available anti-human EGFR and HER2 antibodies were provided. A commercially available HER3 antibody represented by the provider to recognizes human HER3 was provided. The murine 15D5 antibody, murine 1D9 antibody (M5.1D9.1F5), murine 24H5 antibody (M5.24H5.C2) antibodies were also provided. These antibodies were labeled with either PE or APC using the ZENON™ labeling kits (Invitrogen). 5×10⁶ B 16, or B16F10, murine melanoma cells were added to flow cytometry tubes containing the labeled anti-HER3 antibodies. Cells and antibodies were incubated for 30 minutes on ice in the dark, washed and resuspended in FACS buffer. Cells were then analyzed on a FACSCANTO™ flow cytometer. Data analysis was performed using […]™ software, developed by BD Biosciences. Cell populations were gated using forward vs. side scatter and histograms of fluorescent intensities were generated.

Human HER3 receptor [13] = molecular target: T8, Human HER3 receptor; assay: cell-based or functional assay; remark: listed apart in the source

T1 sequence (P21860 20-643): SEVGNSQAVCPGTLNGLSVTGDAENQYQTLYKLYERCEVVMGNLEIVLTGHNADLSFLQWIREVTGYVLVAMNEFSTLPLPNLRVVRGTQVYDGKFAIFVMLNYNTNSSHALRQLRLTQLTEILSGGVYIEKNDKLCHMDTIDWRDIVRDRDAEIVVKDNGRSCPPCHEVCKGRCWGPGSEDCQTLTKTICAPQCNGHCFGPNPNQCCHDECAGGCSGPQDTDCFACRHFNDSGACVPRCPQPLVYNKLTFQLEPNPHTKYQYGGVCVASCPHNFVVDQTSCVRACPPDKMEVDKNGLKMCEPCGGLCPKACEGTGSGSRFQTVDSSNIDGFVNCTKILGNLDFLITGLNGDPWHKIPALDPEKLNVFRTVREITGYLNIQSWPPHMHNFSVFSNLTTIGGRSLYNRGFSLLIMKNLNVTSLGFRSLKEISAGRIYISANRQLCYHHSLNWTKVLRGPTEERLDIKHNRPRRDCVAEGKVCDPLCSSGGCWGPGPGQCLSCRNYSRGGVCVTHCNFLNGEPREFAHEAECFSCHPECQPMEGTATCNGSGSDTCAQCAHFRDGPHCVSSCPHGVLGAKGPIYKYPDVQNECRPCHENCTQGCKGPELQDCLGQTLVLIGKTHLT
T2 sequence (P21860 20-329): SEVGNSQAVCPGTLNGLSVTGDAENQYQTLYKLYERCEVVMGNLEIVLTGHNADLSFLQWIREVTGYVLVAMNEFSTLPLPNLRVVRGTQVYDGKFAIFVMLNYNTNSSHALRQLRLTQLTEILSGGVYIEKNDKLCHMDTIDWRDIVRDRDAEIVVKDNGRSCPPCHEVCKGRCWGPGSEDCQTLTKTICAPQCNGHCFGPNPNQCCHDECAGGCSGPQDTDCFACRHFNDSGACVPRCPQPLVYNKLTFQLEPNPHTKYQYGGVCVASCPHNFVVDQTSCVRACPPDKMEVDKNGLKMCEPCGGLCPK

B1: Murine 15D5 antibody (M5.15D5.2A1.1H10) (antibody, IgG1, V domains shown)
VH: EFQLQQSGPELVKPGASVKISCKASGYSFTDYNMNWVKQNNGKSLEWIGGINPNYGTTVYNQKFKGKATLTVDQSSSTAYMQLVSLTSEDSAVYYCARMTTIVPFDYWGQGTTLTVSS
VL: DIQMTQTTFSLSASLGDRVTISCRASQDISNYLNWYQQKPDGTVKLLIYYTSTLHSGVPSRFSGSGSGTDYFLTIRNLEEEDIATYFCQQGYTLPWTFGGGTKLDIK
notes: Mouse monoclonal, IgG1; also called m15D5; M5.15D5.1C1
- Kd [1]: 2.32 nM
- kon [1]: 41200 M⁻¹ s⁻¹
- Kd [2]: 0.17 nM
- kon [2]: 345000 M⁻¹ s⁻¹
- Kd (Human HER3 ECD domain II [3]): 0.07 nM
- kon (Human HER3 ECD domain II [3]): 1.76e+06 M⁻¹ s⁻¹
- Kd [4]: 0.06 nM
- kon [4]: 1.4e+06 M⁻¹ s⁻¹
- binding result (Human HER3 ECD domain I): no binding (tested: 10 ug/ml)
- binding result [5]: no binding (tested: 10 ug/ml)
- binding result (Human HER3 ECD domain IV): no binding (tested: 10 ug/ml)
- EC50 (read off the curve) (Human HER3 ECD domain II [6]): ~0.2 µg/mL
- Phospho-HER3 … IC50, heregulin induced, CHO EGFR + HER3 (Human HER3 receptor [7]): 0.103 µg/mL
- Phospho-HER3 … IC50, heregulin induced, CHO HER4 + HER3 (Human HER3 receptor [7]): 0.141 µg/mL
- Kd [8]: ~2 nM
- Kd (Human HER3 ECD domain II [9]): 0.07 nM
- Phospho-HER3 ELISA IC50, betacellulin induced, SK-BR-3 cells (Human HER3 receptor [10]): 0.0368 µg/mL
- Phospho-HER3 ELISA IC50, epidermal growth factor induced, SK-BR-3 cells (Human HER3 receptor [10]): 0.0233 µg/mL
- Phospho-HER3 ELISA IC50, heregulin induced, SK-BR-3 cells (Human HER3 receptor [10]): 0.0191 µg/mL
- Phospho-AKT ELISA IC50, heregulin induced, BxPC3 cells (Human HER3 receptor [11]): 0.0605 µg/mL
- binding result [12]: binds
- Phospho-HER3 ELISA IC50, heregulin induced, BT-474 cells (Human HER3 receptor [13]): 0.12 µg/mL
- Phospho-HER3 ELISA IC50, heregulin induced, BxPC3 cells (Human HER3 receptor [13]): 0.0541 µg/mL
- Phospho-HER3 ELISA IC50, heregulin induced, CHL-1 cells (Human HER3 receptor [13]): 0.138 µg/mL
- Phospho-HER3 ELISA IC50, heregulin induced, MCF7 cells (Human HER3 receptor [13]): 0.0593 µg/mL
- Phospho-HER3 ELISA IC50, heregulin induced, N87 cells (Human HER3 receptor [13]): 0.0533 µg/mL
- Phospho-HER3 ELISA IC50, heregulin induced, SK-BR-3 cells (Human HER3 receptor [13]): 0.0191 µg/mL
